# Laboratory results as given in patent US20230061804A1.
# Target: mRFP1-ENLYFQS-(r8)8-Tail
# Assay: live imaging of co-transfected HaCATs; client signal inside against outside KG-like granules
substance,measurement,value
sfGFP-dTEVP,partition coefficient (P),2.1
